The source of these data is US20250215048A1 (MACFARLANE BURNET INSTITUTE FOR MEDICAL RESEARCH AND PUBLIC …, published 2025).

A value given as a limit tells only on which side of the number the result lay.

Test [1] addresses Con1 HMW1 Δ123 (hepatitis C virus genotype 1b, strain Con1) (UniProt Q9WMX2). In words: direct ELISA on coated antigen; ratio of curve mid-points. A general note: ELISA stands for enzyme-linked immunosorbent assay.
For test [2], the target named is S52 HMW1 Δ123 (hepatitis C virus genotype 3a, strain S52). The description is as above.
Test [3] concerns the target H77c HMW1 Δ123 (hepatitis C virus genotype 1a, strain H77c) (UniProt P27958). Described as above.
Test [4] addresses T1, dimeric maltose binding protein (MBP)-CD81-LEL113-201 (UniProt P60033 113-201).
T1 construct: range 113-201; Coated on ELISA plates; The order of the parts follows the printed name, and no linker is stated; also called recombinant CD81
T1 sequence: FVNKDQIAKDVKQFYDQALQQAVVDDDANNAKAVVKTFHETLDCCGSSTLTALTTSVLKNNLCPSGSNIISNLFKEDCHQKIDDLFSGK
In words: sandwich ELISA, MBP-CD81-LEL coated, anti-HIS detection.

On to CBH-4D (antibody), for which the binding to HMW1 Δ123 relative to H77c HMW1 Δ123 in test [1] is below 1.23 fold; in test [2], below 1.68 fold. The binding to HMW1 Δ123 relative to monomeric Δ123 of corresponding strain is below 0.11 fold in test [1], below 0.07 fold in test [2] and below 0.27 fold in test [3].
In the same order, the values of CBH-4B (antibody) are below 1 fold, below 1 fold, below 0.24 fold, below 0.62 fold and below 0.27 fold.
For the molecule AR3D (antibody), in test [1], the binding to HMW1 Δ123 relative to H77c HMW1 Δ123 worked out at 4.73 fold and the binding to HMW1 Δ123 relative to monomeric Δ123 of corresponding strain was determined as 0.08 fold. In test [3], the binding to HMW1 Δ123 relative to monomeric Δ123 of corresponding strain was below 0.17 fold.
As to HC-11 (antibody), the results for the binding to HMW1 Δ123 relative to H77c HMW1 Δ123 in test [1] and in test [2] were 6.97 fold and 1 fold, respectively. For the same molecule, the binding to HMW1 Δ123 relative to monomeric Δ123 of corresponding strain in test [1] was 0.28 fold; in test [2] it was below 0.2 fold; in test [3], 0.21 fold.
For AR3C (antibody), the binding to HMW1 Δ123 relative to H77c HMW1 Δ123 in test [1] was 3.92 fold; in test [2] it was 6.17 fold. In addition, the binding to HMW1 Δ123 relative to monomeric Δ123 of corresponding strain in test [1] is 0.13 fold; in test [2], 0.54 fold; in test [3], 0.18 fold.
HCV1 (antibody): the values for the binding to HMW1 Δ123 relative to H77c HMW1 Δ123 in test [1] and in test [2] were 2.05 fold and 2.08 fold, respectively. Moreover, the binding to HMW1 Δ123 relative to monomeric Δ123 of corresponding strain in test [1] stood at 1.46 fold; in test [2] it was 0.92 fold; in test [3], 1.21 fold.
Consider AR3B (antibody), for which the values for the binding to HMW1 Δ123 relative to H77c HMW1 Δ123 in test [1] and in test [2] were below 6.58 fold and below 1.68 fold, respectively. Further, the binding to HMW1 Δ123 relative to monomeric Δ123 of corresponding strain in test [1] was 0.17 fold; in test [2], below 0.09 fold; in test [3], below 0.37 fold.

B1: S52 Δ123 glycoproteins, unfractionated (cell culture supernatant and TALON eluate) (other)
chain: ETHQKLQLVNTNGSWHINSTALNCNESINTGFIAGLFYYHKFNSTGCPQRLSSCGSSGCWHYAPRPCSVVPASSVCGPVYCFTPSPVVVGTTDIKGKPTYNWGENETDVFLLESLRPPSGRWFGCAWMNSTGFLKTCGAPPCGSSGCPTDCFRKHPEATYSRCGAGPWLTPRCMVDYPYRLWHYPCTVNFTLFKVRMFVGGFEHRFTAACNWTRGERCNIEDRDRSEHHHHHH
notes: Mixture of monomers, dimers and HMW forms as secreted by FS293F cells
In the case of B1, the binding result in test [4] is “binds”.

B2: Con1 Δ123 glycoproteins, unfractionated (cell culture supernatant and TALON eluate) (other)
chain: GTYGSSGQLVNTNGSWHINRTALNCNDSLNTGFLAALFYVHKFNSSGCPERMASCGSSGCWHYAPRPCGIVPAAQVCGPVYCFTPSPVVVGTTDRFGVPTYSWGENETDVLLLNNTRPPQGNWFGCTWMNSTGFTKTCGGPPCGSSGCPTDCFRKHPEATYTKCGSGPWLTPRCLVHYPYRLWHYPCTVNFTIFKVRMYVGGVEHRLEAACNWTRGERCNLEDRDRSEHHHHHH
notes: as for B1
On to B2, for which the binding result in test [4] is given as “binds”.
